Biological target: T1, HA-ZNF449 (UniProt Q6P9G9 1-518)
T1 sequence (looked up): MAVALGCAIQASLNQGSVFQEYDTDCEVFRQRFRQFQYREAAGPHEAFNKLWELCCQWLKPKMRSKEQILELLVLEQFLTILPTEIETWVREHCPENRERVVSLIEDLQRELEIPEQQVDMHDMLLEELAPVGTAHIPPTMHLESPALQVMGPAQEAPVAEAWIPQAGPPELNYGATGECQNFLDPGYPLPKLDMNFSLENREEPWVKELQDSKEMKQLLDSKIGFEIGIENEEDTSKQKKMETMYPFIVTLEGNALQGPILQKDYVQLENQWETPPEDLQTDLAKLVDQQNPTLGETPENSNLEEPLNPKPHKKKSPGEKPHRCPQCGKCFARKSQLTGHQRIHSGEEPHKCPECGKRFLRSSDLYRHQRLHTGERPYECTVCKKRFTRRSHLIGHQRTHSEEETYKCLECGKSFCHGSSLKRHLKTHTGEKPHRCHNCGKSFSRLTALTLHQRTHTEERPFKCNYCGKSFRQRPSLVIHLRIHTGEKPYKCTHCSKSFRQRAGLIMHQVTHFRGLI
Assay: pull-down

B1: GST-fused PTOV1 (125–283 aa) truncation (domain or fragment, UniProt Q86YD1 125-283, looked up)
chain: VNQGENLETDQWPQKLIMQLIPQQLLTTLGPLFRNSQLAQFHFTNRDCDSLKGLCRIMGNGFAGCMLFPHISPCEVRVLMLLYSSKKKIFMGLIPYDQSGFVSAIRQVITTRKQAVGPGGVNSGPVQIVNNKFLAWSGVMEWQEPRPEPNSRSKRWLPS
binding result: binds
